This note sets out measurements from PMC3742469.

Assay [1] has as its target ATP synthase (complex V), human fibroblasts (human (endogenous in fibroblasts)) (UniProt P25705). Nature of the assay: native gel or EMSA; clear native electrophoresis (CNE), 6-15% gradient gels, of digitonin-solubilised (4 g/g protein) mitochondria of human fibroblasts (control and patients) and ρ0 cells; western blot, in-gel activity staining, 2D CNE/SDS PAGE. Background: In EMSA bound probe runs differently from free probe, usually more slowly.

The target in assay [2] is CV lacking the mtDNA-coded subunits (ρ0 cells) (human (endogenous in 143B TK- ρ0 cells)) (UniProt P25705). Described as above.
Assay [3] concerns the target respiratory chain complex IV, human fibroblasts (human (endogenous in fibroblasts)) (UniProt P13073). Described as above.
In assay [4] the target is respiratory chain complex IV, rat heart (rat (endogenous in rat heart mitochondria)) (UniProt P10888). Nature of the assay: native gel or EMSA; clear native electrophoresis (CNE), 6-15% gradient gels, of digitonin-solubilised (4 g/g protein) rat heart mitochondria; western blot, in-gel activity staining, 2D CNE/SDS PAGE and CNE/CNECBG.

What is called stoichiometry N is a count of units in the complex or per binding partner.

Where “and” joins values, the source holds several entries; their conditions need not be identical. Equal entries are not always repeated.

As for “ATP synthase (complex V), human fibroblasts (from UniProt P25705 44-553; P06576 48-529; P36542 26-298; P00846 1-226; P03928 1-68)”, the stoichiometry N in assay [1] is 2 and 4.

With “CV lacking the mtDNA-coded subunits (ρ0 cells) (from UniProt P25705 44-553; P06576 48-529; P36542 26-298) (complex)”, the stoichiometry N in assay [2] was 2 and 4.

Regarding “respiratory chain complex IV, human fibroblasts (from UniProt P13073 23-169; P00395 1-513)”, the stoichiometry N in assay [3] came to 2.

In assay [4], “respiratory chain complex IV, rat heart (from UniProt P10888 23-169; P05503 1-514)” came in with a stoichiometry N of 2.
